83 variants from the RNAGym collection of RNA variant scans (doi:10.1093/molbev/msab373) can be followed below.

B1: Azoarcus group I ribozyme (parent)
chain: GUGCCUUGCGCCGGGAAACCACGCAAGGGAUGGUGUCAAAUUCGGCGAAACCUAAGCGCCCGCCCGGGCGUAUGGCAACGCCGAGCCAAGCUUCGGCGCCUGCGCCGAUGAAGGUGUAGAGACUAGACGGCACCCACCUAAGGCAAACGCUAUGGUGAAGGCAUAGUCCAGGGAGUGGCGAAAGUCACACAAACCGG

The variants in the data set derive from B1. As to the kind of experiment: reverse-splicing fitness (ratio to wild type); higher = more active; in vitro selection; Mg2+ level not given. In a few lines: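 An in vitro group I ribozyme library with randomized positions was T7-transcribed and gel-purified. In triplicate, 10 pmol RNA in EPPS pH 7.5 was reacted with 50 pmoles of a 30-nt RNA substrate for 1 h at 37 °C across several added MgCl2 levels (1–48 mM), then stopped with EDTA. Products were reverse transcribed from a substrate-complementary primer, PCR-amplified and sequenced (HiSeq 4000). Fitness is a variant's read proportion after selection over that before, normalised to wild type.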
Take C82U A111G A145U C150A C169A U176A: the reverse-splicing fitness came to 0.0129.
Next, C82U A111G A145U C150A C169A U176C: 0.00854.
In the case of C82U A111G A145U C150A C169A U176G it was 0.00532; in that of C82U A111G A145U C150A C169A, 0.0078.
In the case of C82U A111G A145U C150A C169U it was 0.0083; in that of C82U A111G A145U C150A C169G, 0.00745; in that of C82U A111G A145C C169U U176C, 0.00903.
Consider C82U A111G A145C C169U U176A, for which the reverse-splicing fitness stood at 0.0108.
Next, C82U A111G A145C C169U U176G: 0.00386; C82U A111G A145G: 0.433; C82U A111G A145U: 0.462.
Consider C82U A111G A145G C150A C169A, for which the reverse-splicing fitness turned out to be 0.0102.
In the case of C82U A111G A145G C150A C169U it was 0.01.
In the case of C82U A111G A145G C150A C169G it was 0.0093; in that of C82U A111G A145U C150A C169U U176C, 0.012; in that of C82U A111G A145U C150A C169U U176G, 0.00567.
In the case of C82U A111G A145U C150A C169U U176A it was 0.013.
For the variant C82U A111G A145C C169G U176G, the reverse-splicing fitness was determined as 0.00461.
In the case of C82U A111G A145C C169G U176C it was 0.0119; in that of C82U A111G A145C C169G U176A, 0.0196; in that of C82U A111G A145U C150U C169A, 0.00819.
With C82U A111G A145U C150U C169U, the reverse-splicing fitness was determined as 0.0088.
As to C82U A111G A145U C150U C169G, the reverse-splicing fitness amounted to 0.00858.
Next, C82U A111G A145U C169U U176G: 0.00468; C82U A111G A145U C169U U176A: 0.012.
In the case of C82U A111G A145U C169U U176C, the reverse-splicing fitness is 0.00988.
In the case of C82U A111G A145U C150A C169G U176A it was 0.0131; in that of C82U A111G A145U C150A C169G U176G, 0.00518.
In the case of C82U A111G A145U C150A C169G U176C it was 0.0113.
Next, C82U A111G A145U C150U C169A U176A: 0.0115; C82U A111G A145U C150U C169A U176G: 0.00546; C82U A111G A145U C150U C169A U176C: 0.00733.
As to C82U A111G A145C C150U U176G, the reverse-splicing fitness stood at 0.0185.
Turning to C82U A111G A145C C150U U176A, the reverse-splicing fitness was 0.0454.
Take C82U A111G A145C C150U U176C: the reverse-splicing fitness was found to be 0.0617.
Next, C82U A111G A145G C169G U176C: 0.0236; C82U A111G A145G C169G U176A: 0.02; C82U A111G A145G C169G U176G: 0.00438.
For C82U A111G A145G C150U C169G, the reverse-splicing fitness came out at 0.00979.
Next, C82U A111G A145G C150U C169A: 0.00982; C82U A111G A145G C150U C169U: 0.0111; C82U A111G A145G C150A C169A U176A: 0.0187.
Next, C82U A111G A145G C150A C169A U176C: 0.0247; C82U A111G A145G C150A C169A U176G: 0.00546.
Next, C82U A111G A145U C150G: 0.0379.
Take C82U A111G A145U C150U: the reverse-splicing fitness turned out to be 0.276.
Regarding C82U A111G A145U C150A, the reverse-splicing fitness stood at 0.0335.
In the case of C82U A111G A145U C150U C169U U176G it was 0.0051.
As to C82U A111G A145U C150U C169U U176A, the reverse-splicing fitness worked out at 0.0117.
Next, C82U A111G A145U C150U C169U U176C: 0.0118.
Next, C82U A111G A145U C150G C169A U176A: 0.00927; C82U A111G A145U C150G C169A U176G: 0.00561; C82U A111G A145U C150G C169A U176C: 0.00932.
Turning to C82U A111G A145C C150U C169G U176C, the reverse-splicing fitness is 0.00977.
Next, C82U A111G A145C C150U C169G U176G: 0.00565; C82U A111G A145C C150U C169G U176A: 0.0186; C82U A111G A145G C150U C169U U176G: 0.005.
In the case of C82U A111G A145G C150U C169U U176C it was 0.0132; in that of C82U A111G A145G C150U C169U U176A, 0.0132; in that of C82U A111G A145G C150G C169U U176C, 0.012.
Next, C82U A111G A145G C150G C169U U176G: 0.00654.
For the variant C82U A111G A145G C150G C169U U176A, the reverse-splicing fitness was 0.0101.
In the case of C82U A111G C150A C169G U176G it was 0.00673.
In the case of C82U A111G C150A C169G U176C it was 0.0199.
Next, C82U A111G C150A C169G U176A: 0.0207; C82U A111G A145U C150G C169U U176A: 0.00755.
Consider C82U A111G A145U C150G C169U U176C, for which the reverse-splicing fitness was determined as 0.0112.
In the case of C82U A111G A145U C150G C169U U176G it was 0.00472; in that of C82U A111G A145G C150G C169A U176G, 0.00737; in that of C82U A111G A145G C150G C169A U176A, 0.012.
Consider C82U A111G A145G C150G C169A U176C, for which the reverse-splicing fitness was 0.0111.
Turning to C82U A111G A145U C169G U176C, the reverse-splicing fitness turned out to be 0.00876.
In the case of C82U A111G A145U C169G U176G it was 0.00474.
Regarding C82U A111G A145U C169G U176A, the reverse-splicing fitness was found to be 0.00999.
In the case of C82U A111G A145G C169A U176C it was 0.022.
In the case of C82U A111G A145G C169A U176G it was 0.00491; in that of C82U A111G A145G C169A U176A, 0.0185.
In the case of C82U A111G C150A C169A U176A it was 0.0183; in that of C82U A111G C150A C169A U176C, 0.0195.
As for C82U A111G C150A C169A U176G, the reverse-splicing fitness was 0.00533.
Next, C82U A111G A145G C150A C169G U176A: 0.0194; C82U A111G A145G C150A C169G U176C: 0.0236.
For C82U A111G A145G C150A C169G U176G, the reverse-splicing fitness was 0.00543.
